Literature values as cited in publication PMC7322545.

Columns and labels:
CCL3 (Homo sapiens) = CCL3 (Homo sapiens) (UniProt P10147)
CCL18 (Homo sapiens) = CCL18 (Homo sapiens) (UniProt P55774)
CCL4 (Homo sapiens) = CCL4 (Homo sapiens) (UniProt P13236)

Measured: Kd

Sequence of UniProt P55774 (P55774 24-89): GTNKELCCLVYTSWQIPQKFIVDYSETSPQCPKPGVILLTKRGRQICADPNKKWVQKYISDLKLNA
Sequence of UniProt P10147 (P10147 24-92): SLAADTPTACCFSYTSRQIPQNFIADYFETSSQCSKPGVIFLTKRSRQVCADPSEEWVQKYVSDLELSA
Sequence of UniProt P13236 (P13236 24-92): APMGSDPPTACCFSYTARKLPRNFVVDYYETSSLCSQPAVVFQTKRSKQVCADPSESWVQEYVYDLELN

EVA-1 (from UniProt P0C8E7)
< 5 nM: CCL3 (Homo sapiens) | CCL18 (Homo sapiens) | CCL4 (Homo sapiens)
